Source: patent publication EP4763221A1 (Akeso Biopharma Co., Ltd., dated 2025)

Key:
[1] = target: T1, human HER3-his (human, UniProt P21860 20-643); assay: indirect ELISA, huHER3-his coated at 0.5 µg/mL; antibody 1.000 nM; replicate 1
T1 construct: Coating antigen of the ELISA; also called huHER3-his; antigen human HER3-his; not shown: his tag

[2] = target: T1, human HER3-his; assay: indirect ELISA, huHER3-his coated at 0.5 µg/mL; antibody 0.333 nM; replicate 2
[3] = target: T1, human HER3-his; assay: indirect ELISA, huHER3-his coated at 0.5 µg/mL; antibody 0 nM (blank, background); replicate 1
[4] = target: T1, human HER3-his; assay: indirect ELISA, huHER3-his coated at 0.5 µg/mL; antibody 0.037 nM; replicate 1
[5] = target: T1, human HER3-his; assay: indirect ELISA, huHER3-his coated at 0.5 µg/mL, goat anti-human IgG Fc-HRP
[6] = target: T2, HER3 on SK-BR-3 cell surface (UniProt P21860 20-1342, limits assumed); assay: FACS on SK-BR-3 cells, anti-human IgG Fc-Alexa Fluor 647 detection
T2 construct: whole, on cells; The target is the HER3 carried on SK-BR-3 cells; also called surface HER3 of SK-BR-3 cells; SK-BR-3 cells expressing HER3

[7] = target: T1, human HER3-his; assay: indirect ELISA, huHER3-his coated at 0.5 µg/mL; antibody 0.012 nM; replicate 2
[8] = target: T1, human HER3-his; assay: indirect ELISA, huHER3-his coated at 0.5 µg/mL; antibody 0.001 nM; replicate 2
[9] = target: T1, human HER3-his; assay: indirect ELISA, huHER3-his coated at 0.5 µg/mL; antibody 0.111 nM; replicate 1
[10] = target: T1, human HER3-his; assay: indirect ELISA, huHER3-his coated at 0.5 µg/mL; antibody 1.000 nM; replicate 2
[11] = target: T1, human HER3-his; assay: indirect ELISA, huHER3-his coated at 0.5 µg/mL; antibody 0.012 nM; replicate 1
[12] = target: T1, human HER3-his; assay: indirect ELISA, huHER3-his coated at 0.5 µg/mL; antibody 0 nM (blank, background); replicate 2
[13] = target: T1, human HER3-his; assay: indirect ELISA, huHER3-his coated at 0.5 µg/mL; antibody 0.037 nM; replicate 2
[14] = target: T1, human HER3-his; assay: indirect ELISA, huHER3-his coated at 0.5 µg/mL; antibody 0.001 nM; replicate 1
[15] = target: T1, human HER3-his; assay: indirect ELISA, huHER3-his coated at 0.5 µg/mL; antibody 0.004 nM; replicate 2
[16] = target: T1, human HER3-his; assay: indirect ELISA, huHER3-his coated at 0.5 µg/mL; antibody 0.333 nM; replicate 1
[17] = target: T1, human HER3-his; assay: indirect ELISA, huHER3-his coated at 0.5 µg/mL; antibody 0.111 nM; replicate 2
[18] = target: T1, human HER3-his; assay: indirect ELISA, huHER3-his coated at 0.5 µg/mL; antibody 0.004 nM; replicate 1

B1: anti-HER3 monoclonal antibody patritumab (antibody, human IgG1, kappa, V domains shown)
VH: QVQLQQWGAGLLKPSETLSLTCAVYGGSFSGYYWSWIRQPPGKGLEWIGEINHSGSTNYNPSLKSRVTISVETSKNQFSLKLSSVTAADTAVYYCARDKWTWYFDLWGRGTLVTVSS
VL: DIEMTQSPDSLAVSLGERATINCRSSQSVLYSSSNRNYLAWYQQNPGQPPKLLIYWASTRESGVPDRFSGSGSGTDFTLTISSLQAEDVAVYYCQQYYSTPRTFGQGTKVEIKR
notes: IgG1/kappa, expressed in 293F cells; also called HER3-targeted monoclonal antibody patritumab
For B1, the “absorbance at 450 nm” value [1] was 2.87 OD450, the “absorbance at 450 nm” value [2] was 2.86 OD450 and the “absorbance at 450 nm” value [3] was 0.091 OD450. For the same binder, the “absorbance at 450 nm” value [4] was 2.57 OD450, the EC50 [5] was 0.009 nM and the EC50 [6] was 8.48 nM. The “absorbance at 450 nm” value [7] was 1.77 OD450, the “absorbance at 450 nm” value [8] was 0.394 OD450 and the “absorbance at 450 nm” value [9] was 2.83 OD450. The “absorbance at 450 nm” value [10] was 2.84 OD450, the “absorbance at 450 nm” value [11] was 1.78 OD450 and the “absorbance at 450 nm” value [12] was 0.087 OD450. The “absorbance at 450 nm” value [13] was 2.57 OD450, the “absorbance at 450 nm” value [14] was 0.382 OD450 and the “absorbance at 450 nm” value [15] was 0.872 OD450. The “absorbance at 450 nm” value [16] was 2.89 OD450, the “absorbance at 450 nm” value [17] was 2.79 OD450 and the “absorbance at 450 nm” value [18] was 0.87 OD450.
